From publication PMC4615246 (Nucleus, 2015)

Experiments:
[1] = biological target: T1, LacI-CFP-Nup107 (human, UniProt P57740 1-925); assay: LacI/LacO array recruitment in cells
T1 sequence: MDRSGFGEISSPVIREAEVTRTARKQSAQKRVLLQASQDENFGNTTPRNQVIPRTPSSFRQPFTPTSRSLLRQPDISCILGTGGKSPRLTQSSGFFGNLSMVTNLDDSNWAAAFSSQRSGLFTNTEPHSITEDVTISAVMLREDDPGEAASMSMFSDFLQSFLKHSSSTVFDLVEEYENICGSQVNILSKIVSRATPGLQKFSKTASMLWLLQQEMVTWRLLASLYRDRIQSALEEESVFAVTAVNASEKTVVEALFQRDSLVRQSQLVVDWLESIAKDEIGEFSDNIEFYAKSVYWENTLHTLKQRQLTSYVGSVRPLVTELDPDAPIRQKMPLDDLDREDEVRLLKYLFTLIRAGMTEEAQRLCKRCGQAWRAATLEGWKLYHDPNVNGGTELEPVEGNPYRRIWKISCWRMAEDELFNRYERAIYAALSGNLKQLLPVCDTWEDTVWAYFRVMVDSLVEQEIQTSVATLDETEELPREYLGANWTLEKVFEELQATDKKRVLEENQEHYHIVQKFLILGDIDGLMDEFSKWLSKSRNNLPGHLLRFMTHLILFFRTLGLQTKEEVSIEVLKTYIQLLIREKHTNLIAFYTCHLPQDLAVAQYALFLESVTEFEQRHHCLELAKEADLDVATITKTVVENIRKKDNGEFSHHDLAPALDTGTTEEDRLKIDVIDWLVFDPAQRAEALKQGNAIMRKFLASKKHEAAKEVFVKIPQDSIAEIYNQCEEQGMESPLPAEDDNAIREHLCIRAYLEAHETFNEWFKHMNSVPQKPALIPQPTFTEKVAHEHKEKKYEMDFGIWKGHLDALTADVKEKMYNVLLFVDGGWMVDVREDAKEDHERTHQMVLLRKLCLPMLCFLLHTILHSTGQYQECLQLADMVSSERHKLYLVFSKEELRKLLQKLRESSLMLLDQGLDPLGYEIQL

[2] = biological target: T2, LacI-CFP-Nup155 (human, UniProt O75694 1-1391); assay: LacI/LacO array recruitment in cells
T2 sequence: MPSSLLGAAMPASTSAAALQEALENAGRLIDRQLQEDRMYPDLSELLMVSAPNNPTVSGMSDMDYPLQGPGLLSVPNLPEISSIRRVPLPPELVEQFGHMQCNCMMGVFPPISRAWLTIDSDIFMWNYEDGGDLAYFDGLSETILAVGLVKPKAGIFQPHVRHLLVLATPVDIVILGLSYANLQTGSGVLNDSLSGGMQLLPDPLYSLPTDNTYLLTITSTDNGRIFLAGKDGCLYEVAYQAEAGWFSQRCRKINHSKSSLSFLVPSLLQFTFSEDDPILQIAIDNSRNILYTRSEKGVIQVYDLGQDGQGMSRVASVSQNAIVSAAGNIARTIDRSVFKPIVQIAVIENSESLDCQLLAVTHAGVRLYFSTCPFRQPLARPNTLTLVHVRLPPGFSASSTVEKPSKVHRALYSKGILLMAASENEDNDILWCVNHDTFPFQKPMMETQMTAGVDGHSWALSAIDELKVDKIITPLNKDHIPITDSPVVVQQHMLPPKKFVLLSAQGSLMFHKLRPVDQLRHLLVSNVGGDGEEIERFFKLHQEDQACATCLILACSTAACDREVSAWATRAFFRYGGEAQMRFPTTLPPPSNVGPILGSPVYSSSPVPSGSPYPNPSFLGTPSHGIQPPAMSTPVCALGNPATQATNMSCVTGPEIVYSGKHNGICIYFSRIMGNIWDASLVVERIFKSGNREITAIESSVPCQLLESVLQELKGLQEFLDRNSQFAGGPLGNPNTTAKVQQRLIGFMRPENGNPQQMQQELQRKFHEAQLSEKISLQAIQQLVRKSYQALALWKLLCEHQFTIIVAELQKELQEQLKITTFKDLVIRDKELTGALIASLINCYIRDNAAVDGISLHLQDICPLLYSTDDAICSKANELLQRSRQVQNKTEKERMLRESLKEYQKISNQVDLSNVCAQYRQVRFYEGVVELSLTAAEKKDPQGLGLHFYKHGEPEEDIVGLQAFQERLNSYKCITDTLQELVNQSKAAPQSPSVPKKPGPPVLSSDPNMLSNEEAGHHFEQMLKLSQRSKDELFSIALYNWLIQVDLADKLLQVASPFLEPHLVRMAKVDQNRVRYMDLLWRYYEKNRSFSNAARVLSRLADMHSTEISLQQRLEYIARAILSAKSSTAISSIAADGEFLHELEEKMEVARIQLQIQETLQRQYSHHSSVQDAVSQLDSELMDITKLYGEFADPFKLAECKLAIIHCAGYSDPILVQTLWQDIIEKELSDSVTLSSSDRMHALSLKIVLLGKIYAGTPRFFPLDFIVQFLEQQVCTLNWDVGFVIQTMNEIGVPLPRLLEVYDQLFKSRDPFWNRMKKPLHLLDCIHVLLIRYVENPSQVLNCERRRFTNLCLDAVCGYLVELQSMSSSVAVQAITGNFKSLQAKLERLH

B1: Nup93 (endogenous) (natural protein)
chain: MDTEGFGELLQQAEQLAAETEGISELPHVERNLQEIQQAGERLRSRTLTRTSQETADVKASVLLGSRGLDISHISQRLESLSAATTFEPLEPVKDTDIQGFLKNEKDNALLSAIEESRKRTFGMAEEYHRESMLVEWEQVKQRILHTLLASGEDALDFTQESEPSYISDVGPPGRSSLDNIEMAYARQIYIYNEKIVNGHLQPNLVDLCASVAELDDKSISDMWTMVKQMTDVLLTPATDALKNRSSVEVRMEFVRQALAYLEQSYKNYTLVTVFGNLHQAQLGGVPGTYQLVRSFLNIKLPAPLPGLQDGEVEGHPVWALIYYCMRCGDLLAASQVVNRAQHQLGEFKTWFQEYMNSKDRRLSPATENKLRLHYRRALRNNTDPYKRAVYCIIGRCDVTDNQSEVADKTEDYLWLKLNQVCFDDDGTSSPQDRLTLSQFQKQLLEDYGESHFTVNQQPFLYFQVLFLTAQFEAAVAFLFRMERLRCHAVHVALVLFELKLLLKSSGQSAQLLSHEPGDPPCLRRLNFVRLLMLYTRKFESTDPREALQYFYFLRDEKDSQGENMFLRCVSELVIESREFDMILGKLENDGSRKPGVIDKFTSDTKPIINKVASVAENKGLFEEAAKLYDLAKNADKVLELMNKLLSPVVPQISAPQSNKERLKNMALSIAERYRAQGISANKFVDSTFYLLLDLITFFDEYHSGHIDRAFDIIERLKLVPLNQESVEERVAAFRNFSDEIRHNLSEVLLATMNILFTQFKRLKGTSPSSSSRPQRVIEDRDSQLRSQARTLITFAGMIPYRTSGDTNARLVQMEVLMN
percent of transfected cells showing colocalization [1]: 9%
percent of transfected cells showing colocalization [2]: 2%
